Test results taken from US10705101B2, “Determination of the unbound free fatty acid profiles in biological and industrial specimens” (priority 2013, dated 2020).
Substitutions are numbered along the chain they refer to. In names and notes the source's numbering stands. Each block holds one molecule with its values, some of them ahead of it.

Experiments:
[1] = FFAu profiles in plasma of rats infused with nicotinic acid and different oils; type: in vivo; conditions: rat plasma
Description: The 5 panels from top to bottom are: A: saline, B: nicotinic acid, C: nicotinic acid+safflower oil, D: nicotinic acid+olive oil, and E: nicotinic acid+coconut oil.
That the FFAu profiles are determined accurately by the method of the present invention is determined by infusing into the blood circulation, of animals and potentially in human subjects, oil/lipid emulsions of known composition, together with heparin. The oils are hydrolyzed by lipoprotein lipases that are released from the capillary endothelial cells by heparin. This lipase activity releases FFAu from the oil that is characteristic of the oil's known composition. Comparing FFAu profiles determined before and after infusion allows determination of the oil composition overlayed on the plasma matrix. Comparing results with different oils and at different levels assesses the validity of the method for determining FFAu profiles in blood samples (for example FIG. 2).
Results are averages of 7 animals for each condition. Nicotinic acid inhibits hormone sensitive lipase (HSL) in adipose tissue resulting in a reduction in circulating FFA levels. Whereas infusion of emulsions of oils of different compositions, together with heparin to activate lipoprotein lipase, will result in the increase of plasma FFA that reflect the composition of the infused oils. When infused together NA and oils results in FFAu profiles that are a conflation of the two effects. […] Adding NA reduces all FFAu except AA which becomes the dominant fraction at nearly 50%. […] NA plus coconut oil results in LAU and MA contributing over 90% of the total FFAu (total FFAu=sum of the concentrations of each of the 9 resolved FFAu). NA plus olive oil results in OA as the dominant FFAu but just barely because NA reduces baseline OA to zero and baseline LA is substantially larger than OA. Thus the FFAu profiles that result from NA plus oil are consistent with the conflation of the two effects. […] Whereas the amount of safflower and coconut oil infused increased the total FFAu to 42 and 92 nM, respectively, consistent with their dominant effects as compared to olive oil (FFAu total=8 nM).

human serum albumin = human serum albumin (Homo sapiens, UniProt P02768); experiment: FFAu profile in artificial plasma (FFA mixed with fatty acid free human serum albumin); type: binding; conditions: artificial plasma: defined FFA mix with fatty acid free HSA in Measuring buffer
From the text: To determine if the low unbound POA levels were due to an interaction with some component of the blood sample matrix an artificial plasma was generated by mixing well defined amounts of the FFA used in Table 4 to fatty acid free human serum albumin in Measuring buffer.

[2] = Probe response (increase in R) to 1 nM SA; type: binding; conditions: 1 nM of SA, FIG. 1
From the text: The set of probes chosen to determine the profile of a sample depends upon the nature of the sample, the types of FFA expected to be present in the sample and the determination that the chosen probes respond to the expected FFA. In addition, especially for the least abundant FFAu in a sample, the probe's sensitivity for a given FFAu must be sufficient to accurately quantitate the low concentration FFAu, for example less than 50 pM. Sensitivity is a function of the Kd, Q, Ro and Rm parameters. Differences in sensitivity among different FFAu probes are apparent in FIG. 1 where for example for ADIFAB2 (acrylodan labeled at lysine 27), 1 nM of SA produces a 20% increase in R while for L11P7B3V26C the increases is almost 500%. […] In the absence of absolutely specific and sensitive probes the determination of FFAu profiles requires an over determined system, which empirically requires about twice the number of probes as FFAu to obtain accurate profiles. The identity of the set of probes to achieve accurate FFAu profiles is not unique. […]
The response profile is the fluorescence change as evaluated as (R−Ro)/Ro (ΔR/Ro) for each FFAu added as a complex of the FFA and albumin so that the FFAu concentration is clamped or buffered at 1 nM for every FFAu for which a calibration has been performed. […]

[3] = Probe calibration by titration with FFA / FFA-BSA complexes: MA; type: binding; conditions: equilibrium dissociation constant of probe for MA
Description: (§1) Calibration: Each probe is calibrated to the extent that the constants in Equation 2 are well determined for all FFAu to be included in profile calculations. Equation 2, which is the form of equation 1 for a single FFAu, relates the FFAu concentration to the equilibrium dissociation constant (Kd), fluorometric constants (Q and Rm) and the measured R values.
(§2) The calibration parameters are determined essentially as described in U.S. Pat. No. 7,601,510 which is incorporated herein by reference and (Huber et al Biochemistry (2006) 45:14263-14274) where the calibrated ADIFAB2 probe was used to generate FFA-BSA complexes with accurate and well buffered FFAu concentrations. To calibrate probes with substantially higher affinities than used in U.S. Pat. No. 7,601,510 and (Huber et al Biochemistry (2006) 45:14263-14274) a boot strap method is used in which a probe having higher affinities is calibrated with ADTFAB2. Such a probe is then used to generate FFA-BSA complexes with FFAu concentrations from 0.1 to 10 nM and these complexes are then used to calibrate other high affinity probes.
(§3) Probe calibration involves titrating the probes with either (i) un-buffered FFA or (ii) BSA-buffered FFA stocks. The un-buffered titrations involve measuring the R-value of a 1 μM probe solution as it is slowly titrated to saturation with small aliquots of a 100 to 250 μM FFA stock (Richieri G V et al. (1992) J Biol Chem 267: 23495-23501, Richieri G V et al. (1999) Mol Cell Biochem 192: 87-94). In this case, the total FFA concentration for each point in the titration is known and a nonlinear fit to the titration data yields the full set of fluorometric constants. In an un-buffered FFA titration, probe concentration is a key variable because the probe binds FFA, directly affecting the FFAu value.
(§4) Alternatively, in a BSA-buffered FFA calibration, the probe solution is titrated with a series of FFA-BSA complexes (600 μM BSA with [FFAu] ranging from 0.1 nM to 4 μM). The titration samples are FFA-BSA complex diluted 50-fold in Measuring Buffer. Probe is added to a concentration of 0.5 μM and the R-value is measured. Because BSA buffers FFAu, its concentration remains constant (i.e. known), even after the addition of probe. […] At least two calibrations with each of the up to 15 different FFA are performed for each probe.
(§5) All of the probes reveal substantial differences for different FFAu and in many cases these differences are related to the aqueous solubility of the FFA. For example, of the FFA in Table 3, SA is the least soluble and MA the most soluble. As discussed in (Richieri G V et al (2000) Biochemistry 39: 7197-7204) the tendency of natural proteins and FABPs, in particular, is for binding constants to be largest (smallest Kd) for the least soluble FFA and conversely for the most soluble FA. In two cases, ADIFAB2 and L11, Kd for SA is substantially the smallest and MA the largest and that pattern is more or less maintained for most of the other probes in Table3 with the exception of L83. In that case MA has the largest affinity while SA's more than 10 fold smaller. To some extent the other calibrations constants follow that behavior; Q is largest for the smallest Kd and Rmax is often largest, so that the probe response tends to be larger for FFA with the larger affinities. The ability to generate mutations that overcome the “natural thermodynamics” allows for probes that have a wide range of specificities and sensitivities than enable the determination of FFAu profiles.

[4] = Probe calibration by titration with FFA / FFA-BSA complexes: SA; type: binding
Description: as §1, §2, §3, §4, §5

[5] = Probe calibration by titration with FFA / FFA-BSA complexes: LA; type: binding; conditions: equilibrium dissociation constant of probe for LA
Description: as §1, §2, §3, §4, §5

[6] = Probe calibration by titration with FFA / FFA-BSA complexes: DHA; type: binding; conditions: equilibrium dissociation constant of probe for DHA
Description: as §1, §2, §3, §4, §5

[7] = Probe calibration by titration with FFA / FFA-BSA complexes: PA; type: binding; conditions: equilibrium dissociation constant of probe for PA
Description: as §1, §2, §3, §4, §5

[8] = Probe calibration by titration with FFA / FFA-BSA complexes: POA; type: binding; conditions: equilibrium dissociation constant of probe for POA
Description: as §1, §2, §3, §4, §5

[9] = Probe calibration by titration with FFA / FFA-BSA complexes: OA; type: binding; conditions: equilibrium dissociation constant of probe for OA
Description: as §1, §2, §3, §4, §5

[10] = Probe calibration by titration with FFA / FFA-BSA complexes: LNA; type: binding; conditions: equilibrium dissociation constant of probe for LNA
Description: as §1, §2, §3, §4, §5

[11] = Probe calibration by titration with FFA / FFA-BSA complexes: AA; type: binding; conditions: equilibrium dissociation constant of probe for AA
Description: as §1, §2, §3, §4, §5

[12] = Probe response profile / specificity for different FFAu at 1 nM; type: binding; conditions: FFAu giving the largest response to 1 nM of each FFAu; several listed in order of degree of specificity
From the text: The abbreviations are: arachidonate (AA), docosahexaenoate (DHA), eicosapentaenoate (EPA), laurate (LAU), linoleate (LA), linolenate (LNA), myristate (MA), oleate (OA), palmitate (PA), palmitoleate (POA), stearate (SA), and vaccenate (VA).
Examples of probes used, generally in groups of 10 or more, to determine FFAu profiles in biological samples such as blood plasma or serum from animals and humans or media from microorganisms are shown in Table 2. In the sequences presented in Table 2 and the sequence listing, amino acids are numbered from the first residue of the mature protein. The initiator methionine residue of the wild-type protein is removed by aminopeptidase activity, leaving an alanine as residue 1. Thus, counting backwards and skipping 0, the initiator methionine is at residue position −1. Specificity indicates the FFAu that gives the largest response to 1 nM of each FFAu when one FFAu dominates the profile and more than one when there is a more even distribution of specificity. Where more than one is indicated they are listed in order of degree of specificity. The abbreviations are: arachidonate (AA), docosahexaenoate (DHA), eicosapentaenoate (EPA), laurate (LAU), linoleate (LA), linolenate (LNA), myristate (MA), oleate (OA), palmitate (PA), palmitoleate (POA), stearate (SA), and vacsinate (VA). The sequences indicate mutations relative to SEQ ID NO: 1. This sequence is a mutated rat intestinal fatty acid binding protein with a Glu 131 to Asp substitution and includes a COOH-terminal affininity tag comprising […], Gly 133 and 6 histidines.
The response profile is the fluorescence change as evaluated as (R−Ro)/Ro (ΔR/Ro) for each FFAu added as a complex of the FFA and albumin so that the FFAu concentration is clamped or buffered at 1 nM for every FFAu for which a calibration has been performed. The calculation is performed simply by rearranging equation 2 to solve for ΔR/Ro. […] However all the probes have different profiles and therefore complementary specificities for different FFAu. Abbreviations are as in Table 2.

[13] = equilibrium dissociation constant of probe for SA, read-out: Kd SA

Chain of human serum albumin (P02768 25-609): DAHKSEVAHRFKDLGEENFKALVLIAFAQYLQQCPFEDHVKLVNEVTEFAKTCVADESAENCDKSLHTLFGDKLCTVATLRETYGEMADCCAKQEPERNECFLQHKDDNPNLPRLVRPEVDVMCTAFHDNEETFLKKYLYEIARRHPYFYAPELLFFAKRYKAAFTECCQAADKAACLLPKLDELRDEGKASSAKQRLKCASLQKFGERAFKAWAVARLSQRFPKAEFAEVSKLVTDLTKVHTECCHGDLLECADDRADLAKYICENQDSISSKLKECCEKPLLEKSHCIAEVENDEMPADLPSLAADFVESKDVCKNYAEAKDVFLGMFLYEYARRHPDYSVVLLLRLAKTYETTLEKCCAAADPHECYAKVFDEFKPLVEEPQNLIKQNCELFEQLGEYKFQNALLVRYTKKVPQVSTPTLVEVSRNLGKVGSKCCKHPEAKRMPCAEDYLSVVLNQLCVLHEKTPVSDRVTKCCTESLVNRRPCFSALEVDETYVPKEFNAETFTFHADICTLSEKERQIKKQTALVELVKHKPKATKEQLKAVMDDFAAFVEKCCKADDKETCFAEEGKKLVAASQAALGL

Molecule: O=C(O)c1cccnc1 [NA, nicotinic acid]
AA fraction of FFAu profile [1]: ~50% | baseline OA [1]: zero | total FFAu ([1]; sum of 9 resolved FFAu, averages of 7 animals): 2 nM | reduction of total FFAu ([1]; versus saline, no infused oil): more than 4 fold

B2: L1P8 H2: acrylodan-labeled mutant FABP probe: Y14M, L38M, L72W (protein, UniProt P02693 2-132, looked up, variant Y14M L38M L72W)
Fatty acid-binding protein, …: AFDGTWKVDRNENMEKFMEKMGINVVKRKLGAHDNLKMTITQEGNKFTVKESSNFRNIDVVFELGVDFAYSWADGTELTGTWTMEGNKLVGKFKRVDNGKELIAVREISGNELIQTYTYEGVEAKRIFKKE
modifications: acrylodan label
notes: acrylodan-labeled mutant FABP probe: Y14M, L38M, L72W
Kd [3]: 299 nM | Kd [4, 13]: 19.2 nM | Specificity [12]: OA/SA/VA | Kd [5]: 97.5 nM | Kd [6]: 248 nM | Kd [7]: 45.4 nM | Kd [8]: 209 nM | Kd [9]: 14.4 nM | Kd [10]: 217 nM | Kd [11]: 104 nM

Second part, led by results:

% FFAu (human serum albumin): 16.9%
Molecule: CCCCCC/C=C\CCCCCCCC(=O)O [POA, palmitoleate]

Kd [3]: 324 nM | Kd [4, 13]: 9.3 nM | Kd [5]: 101 nM | Kd [6]: 253 nM | Kd [7]: 21.4 nM | Kd [8]: 257 nM | Kd [9]: 32 nM | Kd [10]: 237 nM | Kd [11]: 167 nM
B1: ADIFAB2: acrylodan-labeled (lysine 27) mutant FABP probe: L72A (protein, UniProt P02693 2-132, looked up, variant L72A)
Fatty acid-binding protein, …: B2 Fatty acid-binding protein, … with M14Y, M38L, W72A
modifications: acrylodan label on K27
notes: acrylodan-labeled (lysine 27) mutant FABP probe: L72A
increase in R [2]: 20%

Kd [3]: 18.8 nM | Kd ([4]; read-out: Kd for SA): 0.25 nM | Kd [5]: 3.9 nM | Kd [6]: 7.5 nM | Kd [7]: 1.1 nM | Kd [8]: 11.1 nM | Kd [9]: 1 nM | Kd [10]: 11.2 nM | Kd [11]: 6.1 nM
B3: L11P7 B3 V26C: acrylodan-labeled mutant FABP probe: M21F, V26C, L72A, L78V, L102V (protein, UniProt P02693 2-132, looked up, variant M21F V26C L72A L78V L102V)
Fatty acid-binding protein, …: B2 Fatty acid-binding protein, … with M14Y, M21F, V26C, M38L, W72A, L78V, L102V
modifications: acrylodan label
notes: acrylodan-labeled mutant FABP probe: M21F, V26C, L72A, L78V, L102V
increase in R [2]: ~500%

Kd [3]: 15.4 nM | Kd [4, 13]: 2 nM | Kd [5]: 1.1 nM | Kd [6]: 1.2 nM | Kd [7]: 3 nM | Kd [8]: 5.5 nM | Kd [9]: 1.3 nM | Kd [10]: 2.7 nM | Kd [11]: 1 nM
B4: L10P7 A4 L30C: acrylodan-labeled mutant FABP probe: Y14L, M18L, K27A, L30C, G31Y, A73L, Y117A (protein, UniProt P02693 2-132, looked up, variant Y14L M18L K27A L30C G31Y A73L Y117A)
Fatty acid-binding protein, …: B2 Fatty acid-binding protein, … with M14L, M18L, K27A, L30C, G31Y, M38L, W72L, A73L, Y117A
modifications: acrylodan label
notes: acrylodan-labeled mutant FABP probe: Y14L, M18L, K27A, L30C, G31Y, A73L, Y117A
Specificity [12]: AA/DHA/OA/EPA/LA
